Test results reported in patent publication US20210261665A1.

Tests used:
[1] = biological target: human PD-1 on cells (human) (UniProt Q15116)
[2] = biological target: cynomolgus monkey PD-1 on cells (cynomolgus monkey) (UniProt B0LAJ3); test: flow cytometry on CHOK1-cPD-1 cells
[3] = biological target: human PD-1 on cells (human) (UniProt Q15116); test: flow cytometry on CHOK1-hPD-1 cells
[4] = biological target: hPD-1 protein (ELISA coat) (human) (UniProt Q15116); test: ELISA against hPD-1 ECD-Fc protein (plate coat)
[5] = biological target: mPD-1 protein (ELISA coat) (mouse) (UniProt Q02242); test: ELISA against mPD-1 ECD-Fc protein (plate coat)
[6] = biological target: human PD-1 on cells (human) (UniProt Q15116); test: cell based RBA (flow cytometry): blocking of Biotin-hPD-L1 binding to CHOK1-hPD-1 cells
[7] = biological target: human PD-1 on cells (human) (UniProt Q15116); test: cell based RBA (flow cytometry): blocking of Biotin-hPD-L2 binding to CHOK1-hPD-1 cells

Sequence of human PD-1 on cells (human) (Q15116 25-288): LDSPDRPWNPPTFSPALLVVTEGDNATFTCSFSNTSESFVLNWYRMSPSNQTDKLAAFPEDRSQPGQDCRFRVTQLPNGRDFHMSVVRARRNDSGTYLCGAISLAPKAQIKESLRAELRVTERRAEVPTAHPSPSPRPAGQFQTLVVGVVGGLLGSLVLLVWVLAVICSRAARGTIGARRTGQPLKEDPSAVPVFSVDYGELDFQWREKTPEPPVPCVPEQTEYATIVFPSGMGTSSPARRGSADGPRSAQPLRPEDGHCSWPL
Sequence of hPD-1 protein (ELISA coat) (human) (Q15116 25-167 limits assumed): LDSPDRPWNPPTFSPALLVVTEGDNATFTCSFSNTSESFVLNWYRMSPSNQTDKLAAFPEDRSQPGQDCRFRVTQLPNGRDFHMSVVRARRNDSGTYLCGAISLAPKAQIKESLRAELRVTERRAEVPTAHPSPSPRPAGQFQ
Sequence of cynomolgus monkey PD-1 on cells (cynomolgus monkey) (B0LAJ3 entry or part of it limits assumed): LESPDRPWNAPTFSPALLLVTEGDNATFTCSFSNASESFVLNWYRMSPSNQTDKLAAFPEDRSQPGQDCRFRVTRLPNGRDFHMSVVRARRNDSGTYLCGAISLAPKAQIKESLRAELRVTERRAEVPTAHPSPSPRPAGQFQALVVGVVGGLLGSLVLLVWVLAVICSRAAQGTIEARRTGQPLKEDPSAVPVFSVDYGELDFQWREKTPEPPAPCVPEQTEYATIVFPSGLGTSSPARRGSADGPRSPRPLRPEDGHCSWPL
Sequence of mPD-1 protein (ELISA coat) (mouse) (Q02242 25-167 limits assumed): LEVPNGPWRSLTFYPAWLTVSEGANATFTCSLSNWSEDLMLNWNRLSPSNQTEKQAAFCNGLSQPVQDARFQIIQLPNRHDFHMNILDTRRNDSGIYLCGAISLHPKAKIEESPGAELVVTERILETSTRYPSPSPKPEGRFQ

EC50 printed for the negative control; its RLU curve is flat at about 270000 and falls to about 225000 at the highest concentration, no activation [1]: 12400 ng/mL
Max MFI [2]: 86
Max MFI [3]: 107
Max OD450 [4]: 0.67
Max OD450 [5]: 0.92
Inhibition rate [6]: 4.9%
Inhibition rate [7]: -5.5%
Substance: control human IgG4 (antibody)
